According to the supplement of paper PMC5998384:

Assays:
HeLa Kyoto [1] = assay: melting temperature (median over replicates), in situ; higher = more thermally stable
HeLa Kyoto [2] = assay: solubility in G1/S (NP-40 vs SDS abundance) (log2 ratio); higher = more soluble; conditions: cell cycle stage: G1/S
HeLa Kyoto [3] = assay: solubility change mitosis vs G1/S (difference of NP-40 vs SDS log2 ratios) (log2 ratio difference); higher = more soluble in mitosis
HeLa Kyoto [4] = assay: thermal stability score vs G1/S (z-score of summed log2 fold changes over temperatures); higher = more thermally stable than in G1/S
[5] = cell cycle stage: early G1 (4.5 h after nocodazole release)
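For melting temperature (median over replicates), in situ in this document: HeLa Kyoto cells synchronized by double thymidine or nocodazole block, proteins quantified by TMT10plex mass spectrometry, three independent biological replicates.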
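For solubility change mitosis vs G1/S (difference of NP-40 vs SDS log2 ratios) in this document: synchronized HeLa Kyoto cells (double thymidine block for G1/S, nocodazole release for mitosis), protein amounts in NP-40 versus SDS lysates quantified by mass spectrometry, three biological replicates.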
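For solubility in G1/S (NP-40 vs SDS abundance) in this document: HeLa Kyoto cells arrested at G1/S by double thymidine block, proteins quantified by TMT10plex mass spectrometry in mild NP-40 versus SDS extracts, three biological replicates.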
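For thermal stability score vs G1/S (z-score of summed log2 fold changes over temperatures) in this document: synchronized HeLa Kyoto cells, proteins quantified by TMT10plex mass spectrometry, three biological replicates, mitosis taken 0.5 h after nocodazole release, G1/S directly after double thymidine block.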

Row | Sequence | melting temperature (HeLa Kyoto [1]; cell cycle stage: G1/S) | melting temperature (HeLa Kyoto [1]; cell cycle stage: mitosis) | solubility in G1/S (log2) (HeLa Kyoto [2]) | solubility change mitosis (log2) (HeLa Kyoto [3]) | thermal stability score (HeLa Kyoto [4]; [5]) | thermal stability score (HeLa Kyoto [4]; cell cycle stage: mitosis)
1 | MAAQRRSLLQSEQQPSWTDDLPLCHLSGVGSASNRSYSADGKGTESHPPEDSWLKFRSENNCFLYGVFNGYDGNRVTNFVAQRLSAELLLGQLNAEHAEADVRRVLLQAFDVVERSFLESIDDALAEKASLQSQLPEGVPQHQLPPQYQKILERLKTLEREISGGAMAVVAVLLNNKLYVANVGTNRALLCKSTVDGLQVTQLNVDHTTENEDELFRLSQLGLDAGKIKQVGIICGQESTRRIGDYKVKYGYTDIDLLSAAKSKPIIAEPEIHGAQPLDGVTGFLVLMSEGLYKALEAAHGPGQANQEIAAMIDTEFAKQTSLDAVAQAVVDRVKRIHSDTFASGGERARFCPRHEDMTLLVRNFGYPLGEMSQPTPSPAPAAGGRVYPVSVPYSSAQSTSKTSVTLSLVMPSQGQMVNGAHSASTLDEATPTLTNQSPTLTLQSTNTHTQSSSSSSDGGLFRSRPAHSLPPGEDGRVEPYVDFAEFYRLWSVDHGEQSVVTAP [TAB1] | 49.4 °C | 49.7 °C | 0.302 | -0.0812 | -0.0541 | 1.34
2 | MAARAGFQSVAPSGGAGASGGAGAAAALGPGGTPGPPVRMGPAPGQGLYRSPMPGAAYPRPGMLPGSRMTPQGPSMGPPGYGGNPSVRPGLAQSGMDQSRKRPAPQQIQQVQQQAVQNRNHNAKKKKMADKILPQRIRELVPESQAYMDLLAFERKLDQTIMRKRLDIQEALKRPIKQKRKLRIFISNTFNPAKSDAEDGEGTVASWELRVEGRLLEDSALSKYDATKQKRKFSSFFKSLVIELDKDLYGPDNHLVEWHRTATTQETDGFQVKRPGDVNVRCTVLLMLDYQPPQFKLDPRLARLLGIHTQTRPVIIQALWQYIKTHKLQDPHEREFVICDKYLQQIFESQRMKFSEIPQRLHALLMPPEPIIINHVISVDPNDQKKTACYDIDVEVDDTLKTQMNSFLLSTASQQEIATLDNKIHETIETINQLKTQREFMLSFARDPQGFINDWLQSQCRDLKTMTDVVGNPEEERRAEFYFQPWAQEAVCRYFYSKVQQRRQELEQALGIRNT [SMARCD1] | 47.4 °C | 49.3 °C | 0.347 | -0.0288 | 0.481 | 1.5
3 | MAARCSTRWLLVVVGTPRLPAISGRGARPPREGVVGAWLSRKLSVPAFASSLTSCGPRALLTLRPGVSLTGTKHNPFICTASFHTSAPLAKEDYYQILGVPRNASQKEIKKAYYQLAKKYHPDTNKDDPKAKEKFSQLAEAYEVLSDEVKRKQYDAYGSAGFDPGASGSQHSYWKGGPTVDPEELFRKIFGEFSSSSFGDFQTVFDQPQEYFMELTFNQAAKGVNKEFTVNIMDTCERCNGKGNEPGTKVQHCHYCGGSGMETINTGPFVMRSTCRRCGGRGSIIISPCVVCRGAGQAKQKKRVMIPVPAGVEDGQTVRMPVGKREIFITFRVQKSPVFRRDGADIHSDLFISIAQALLGGTARAQGLYETINVTIPPGTQTDQKIRMGGKGIPRINSYGYGDHYIHIKIRVPKRLTSRQQSLILSYAEDETDVEGTVNGVTLTSSGGSTMDSSAGSKARREAGEDEEGFLSKLKKMFTS [DNAJA3] | 48.4 °C | 50.3 °C | -0.186 | -0.0129 | -0.681 | 0.373
4 | MAARTVIIDHGSGFLKAGTAGWNEPQMVFPNIVNYLPCKENPGPSYARRRVSLGIDICHPDTFSYPIERGRILNWEGVQYLWSFVLENHRREQEVPPVIITETPLREPADRKKMLEILFELLHVPSVLLADQLQMSLYASGLLTGVVVDSGYGLTRVQPFHQGRPLPASGKTLEFAGQDLSAYLLKSLFKEDCDRRCLFQLETVAVTQMNKCYVPQNLGEALDFRERQQSALDESNTYQLPDGSRVELTPMQRVAPEMFFSPQVFEQPGPSIPRAIVESVESCEISLRPLLVSHVMACGGNTLYPGFTKRLFRELMGDHVSSTKATVWEGSNRNFSVWLGASVVAHLSTYQSEWMSREEYGEHMRM [ACTL8] | 52.8 °C | 52.4 °C | -0.19 | 0.0715 | -0.233 | -1.1
5 | MAASALYACTKCTQRYPFEELSQGQQLCKECRIAHPIVKCTYCRSEFQQESKTNTICKKCAQNVKQFGTPKPCQYCNIIAAFIGTKCQRCTNSEKKYGPPQTCEQCKQQCAFDRKEEGRRKVDGKLLCWLCTLSYKRVLQKTKEQRKSLGSSHSNSSSSSLTEKDQHHPKHHHHHHHHHHRHSSSHHKISNLSPEEEQGLWKQSHKSSATIQNETPKKKPKLESKPSNGDSSSINQSADSGGTDNFVLISQLKEEVMSLKRLLQQRDQTILEKDKKLTELKADFQYQESNLRTKMNSMEKAHKETVEQLQAKNRELLKQVAALSKGKKFDKSGSILTSP [FAM76B] | – | 51.3 °C | -0.529 | 0.486 | -0.509 | 0.107
6 | MAASGEPQRQWQEEVAAVVVVGSCMTDLVSLTSRLPKTGETIHGHKFFIGFGGKGANQCVQAARLGAMTSMVCKVGKDSFGNDYIENLKQNDISTEFTYQTKDAATGTASIIVNNEGQNIIVIVAGANLLLNTEDLRAAANVISRAKVMVCQLEITPATSLEALTMARRSGVKTLFNPAPAIADLDPQFYTLSDVFCCNESEAEILTGLTVGSAADAGEAALVLLKRGCQVVIITLGAEGCVVLSQTEPEPKHIPTEKVKAVDTTGAGDSFVGALAFYLAYYPNLSLEDMLNRSNFIAAVSVQAAGTQSSYPYKKDLPLTLF [RBKS] | 57.9 °C | 54.8 °C | 0.229 | -0.0848 | -2.59 | -2.4
7 | MAASGKLSTCRLPPLPTIREIIKLLRLQAAKQLSQNFLLDLRLTDKIVRKAGNLTNAYVYEVGPGPGGITRSILNADVAELLVVEKDTRFIPGLQMLSDAAPGKLRIVHGDVLTFKVEKAFSESLKRPWEDDPPNVHIIGNLPFSVSTPLIIKWLENISCRDGPFVYGRTQMTLTFQKEVAERLAANTGSKQRSRLSVMAQYLCNVRHIFTIPGQAFVPKPEVDVGVVHFTPLIQPKIEQPFKLVEKVVQNVFQFRRKYCHRGLRMLFPEAQRLESTGRLLELADIDPTLRPRQLSISHFKSLCDVYRKMCDEDPQLFAYNFREELKRRKSKNEEKEEDDAENYRL [TFB1M] | 51.7 °C | 51.4 °C | -0.318 | 0.122 | 0.388 | 0.452
8 | MAASRPLSRFWEWGKNIVCVGRNYADHVREMRSAVLSEPVLFLKPSTAYAPEGSPILMPAYTRNLHHELELGVVMGKRCRAVPEAAAMDYVGGYALCLDMTARDVQDECKKKGLPWTLAKSFTASCPVSAFVPKEKIPDPHKLKLWLKVNGELRQEGETSSMIFSIPYIISYVSKIITLEEGDIILTGTPKGVGPVKENDEIEAGIHGLVSMTFKVEKPEY [FAHD1] | 53.5 °C | 60 °C | 0.144 | -0.257 | -1.32 | -1.65
9 | MAASVEQREGTIQVQGQALFFREALPGSGQARFSVLLLHGIRFSSETWQNLGTLHRLAQAGYRAVAIDLPGLGHSKEAAAPAPIGELAPGSFLAAVVDALELGPPVVISPSLSGMYSLPFLTAPGSQLPGFVPVAPICTDKINAANYASVKTPALIVYGDQDPMGQTSFEHLKQLPNHRVLIMKGAGHPCYLDKPEEWHTGLLDFLQGLQ [ABHD14B] | 52.9 °C | 52.7 °C | 0.421 | -0.165 | -0.635 | -1.1
10 | MAATAREDGASGQERGQRGCEHYDRGCLLKAPCCDKLYTCRLCHDNNEDHQLDRFKVKEVQCINCEKIQHAQQTCEECSTLFGEYYCDICHLFDKDKKQYHCENCGICRIGPKEDFFHCLKCNLCLAMNLQGRHKCIENVSRQNCPICLEDIHTSRVVAHVLPCGHLLHRTCYEEMLKEGYRCPLCMHSALDMTRYWRQLDDEVAQTPMPSEYQNMTVDILCNDCNGRSTVQFHILGMKCKICESYNTAQAGGRRISLDQQ [RCHY1] | 51.2 °C | 52.3 °C | 0.146 | -0.374 | -0.0247 | 0.646
